# What was measured:
# Type in all cases: biochemical, Bacteroides thetaiotaomicron
# Settings in all cases: 50 mM HEPES pH 7.0, 5 mM MgCl2, 37 °C
# [1] = substrate: O=[N+]([O-])c1ccc(OP(=O)(O)O)cc1; assay: purified protein
# [2] = substrate: O=P(O)(O)OCC(O)CO; assay: initial rates, phosphate release
# [3] = substrate: Cc1ncc(COP(=O)(O)O)c(C=O)c1O; assay: initial rates, phosphate release
# [4] = substrate: O=P(O)(O)OC[C@@H](O)[C@@H](O)[C@H](O)[C@@H](O)CO; assay: initial rates, phosphate release
# [5] = substrate: O=P(O)(O)OC[C@H]1O[C@H](O[C@H]2O[C@H](CO)[C@@H](O)[C@H](O)[C@H]2O)[C@H](O)[C@@H](O)[C@@H]1O; assay: initial rates, phosphate release
# [6] = substrate: O=P(O)(O)OC[C@H]1O[C@@](CO)(O[C@H]2O[C@H](CO)[C@@H](O)[C@H](O)[C@H]2O)[C@@H](O)[C@@H]1O; assay: initial rates, phosphate release
# [7] = substrate: Nc1ncnc2c1ncn2[C@@H]1O[C@H](COP(=O)(O)OP(=O)(O)O)[C@@H](O)[C@H]1O; assay: initial rates, phosphate release
protein,measurement,setting,value
BT1666 (Bacteroides thetaiotaomicron VPI-5482) (protein) MIKVLLLDVDGTLLSFETHKVSQSSIDALKKVHDSGIKIVIATGRAASDLHEIDAVPYDGVIALNGAECVLRDGSVIRKVAIPAQDFRKSMELAREFDFAVALELNEGVFVNRLTPTVEQIAGIVEHPVPPVVDIEEMFERKECCQLCFYFDEEAEQKVMPLLSGLSATRWHPLFADVNVAGTSKATGLSLFADYYRVKVSEIMACGDGGNDIPMLKAAGIGVAMGNASEKVQSVADFVTDTVDNSGLYKALKHFGVI,Km,[1],0.51 ± 0.1 mM
same,kcat,[1],0.055 ± 0.007 s⁻¹
same,kcat/Km,[1],110 M⁻¹ s⁻¹
same,Km,[2],5.3 ± 0.7 mM
same,kcat,[2],0.42 ± 0.03 s⁻¹
same,kcat/Km,[2],79 M⁻¹ s⁻¹
same,Km,[3],4.1 ± 0.5 mM
same,kcat,[3],0.29 ± 0.01 s⁻¹
same,kcat/Km,[3],70 M⁻¹ s⁻¹
same,Km,[4],6.5 ± 3 mM
same,kcat,[4],0.42 ± 0.06 s⁻¹
same,kcat/Km,[4],65 M⁻¹ s⁻¹
same,Km,[5],2.2 ± 0.4 mM
same,kcat,[5],0.3 ± 0.03 s⁻¹
same,kcat/Km,[5],140 M⁻¹ s⁻¹
same,Km,[6],1.4 ± 0.3 mM
same,kcat,[6],0.11 ± 0.01 s⁻¹
same,kcat/Km,[6],79 M⁻¹ s⁻¹
same,Km,[7],1.0 (± 2) × 10^1 mM
same,kcat,[7],0.45 ± 0.06 s⁻¹
same,kcat/Km,[7],45 M⁻¹ s⁻¹

# From publication PMC3356575
